Results reported in the Immune Epitope Database (IEDB).

The sequences below were run against HLA-B*35:01 (assay: IEDB peptide-MHC binding, purified MHC/competitive/radioactivity; ≥ and ≤ were set here for values at or beyond the usual limits of such assays). Details: source organism: Bordetella pertussis.

Sequence | IC50
ETFCITTIY | 15.8 µM
VHVSKEEQY | 69.9 µM
QVGSSNSAF | 69.9 µM
GKDLKRPGS | 69.9 µM

The sequences below were run against HLA-B*53:01 in the same assay as above. Details: source organism: Bordetella pertussis.

Sequence | IC50
ETFCITTIY | 31.1 µM
MATKGEMQI | 58 µM
MAAESTFES | 24.1 µM

The sequences below were run against HLA-A*02:01 in the same assay as above. Details: source organism: Bordetella pertussis.

Sequence | IC50
VLVKTNMVV | 11.4 µM
GVAPTAQQL | 69.4 µM
YMIYMSGLA | 0.407 µM

The sequences below were run against HLA-B*57:01 in the same assay as above. Details: source organism: Bordetella pertussis.

Sequence | IC50
AVLVNPHIF | 33.3 µM
ITVTSRGGF | 0.773 µM
DDEVDVSGR | ≥ 70.4 µM
TTLGLEQTF | 4.77 µM

The sequences below were run against HLA-B*44:03 in the same assay as above. Details: source organism: Bordetella pertussis.

Sequence | IC50
AAVALLNKL | 0.672 µM
AQITSYVGF | 2.12 µM

What follows are sequences tested against HLA-B*07:02 in the same assay as above. Details: source organism: Bordetella pertussis.

Sequence | IC50
GPSAVAAPA | 0.624 µM
PPKPAPVAK | ≥ 77.5 µM
FVRSGQPVI | 17.6 µM
GPPSRPTTP | 69.6 µM
